The record followed here is PMC4027207, “Molecular dissection of the domain architecture and catalytic activities of human PrimPol” (Nucleic Acids Research, 2014).

This series deals with T1, PrimPol372-560/ZF-KO (Homo sapiens, UniProt Q96LW4 372-560, C419A;H426A).
T1 sequence: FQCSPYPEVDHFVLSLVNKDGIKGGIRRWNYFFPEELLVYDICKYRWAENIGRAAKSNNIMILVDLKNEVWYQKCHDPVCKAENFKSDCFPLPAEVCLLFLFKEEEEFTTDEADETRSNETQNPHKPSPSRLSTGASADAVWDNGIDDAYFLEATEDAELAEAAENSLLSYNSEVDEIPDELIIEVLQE
The series is described as follows: EMSA; 10 mM Mg2+; 40 nM DNA; no binding, protein 0.05-20 uM; 10 mM Bis-Tris-Propane-HCl pH 7.0, 10 mM MgCl2, 1 mM DTT, 40 nM DNA, 25°C, 60 min; 5% polyacrylamide gel in 0.5x TBE. The note with it: protein: recombinant; tags: His (Ni-NTA purified); label: 5'-Hex.

B1: HP-50 ssDNA (sequence 7) (ssDNA)
DNA: TGTCGTCTGTTCGGTCGTTCGGTCTTCAAGGCTGTTGTGCGCCCTGCGCG
On to B1, for which the binding result is “no binding”.
